From the DeepSol protein solubility set

assay: soluble on expression in E. coli; label from the status in PepcDB or PDB records

| Sequence | soluble on expression in E. coli |
| --- | --- |
| MSLSIRYIVKTDVSETFEIIKAGQVGSNIVFSEIRTFDFGELATLACEKFYFRSSNRAALFVNINNFHGETEVTIISTGSSNGFFTGIDWGAAFDYMHSVVADLKRVAIREVKMEKQEEGHHHHHH | soluble |
| MSLSKTYVGSRVRQLRNERGFSQAALAQMLEISPSYLNQIEHDVRPLTVAVLLRITEVFGVDATFFASQDDTRLVAELREVTLDRDLDIAIDPHEVAEMVSAHPGLACAVVNLHRRYRITTAQLAAATEERFSDGSGRGSITMPHEEVRDYFYQRQNYLHALDTAAEDLTAQMRMHHGDLARELTRRLTEVHGVRINKRIDLGDTVLHRYDPATNTLEISSHLSPGQQVFKMAAELAYLEFGDLIDAMVTDGKFTSAESRTLARLGLANYFAAATVLPYRQFHDVAENFRYDVERLSAFYSVSYETIAHRLSTLQRPSMRGVPFTFVRVDRAGNMSKRQSATGFHFSSSGGTCPLWNVYETFANPGKILVQIAQMPDGRNYLWVARTVELRAARYGQPGKTFAIGLGCELRHAHRLVYSEGLDLSGDPNTAATPIGAGCRVCERDNCPQRAFPALGRALDLDEHRSTVSPYLVKQEGHHHHHH | soluble |
| MSLSLKELLKDRLSEEELKLVRRSFEIIGDVVIIEIPDEIMHHSRDIVEAILKRHKHVKTVLRKVGEVDGVYRVARYEPIYGEKTETVVREHGCRFLVDPTKAYYSVKLSGERERIARLVGEGERVLVMFAGVGPYPIVIAKLARPREVVGVELNPHAVEYFRQNVRLNKVEGVVKVIEGDVEEVVPQLSGQFDRVVMPAPYSAENFIHLLRGKVRRGGFVHYYTFDSQNEEKILPEKVRRKFEDEGLEVEVVKMRRCGNFAPYVNRYVLDLRVLEGHHHHHH | soluble |
| MSLSLRLPLAGGGLETFKLSAPRDFPARASGPMNRIAFSAAHVVADPLAASDPWLEAAIDWDHTIAYRQRLWDLGLGVAEAMDTAQRGMGLDWPTSLDLIRRSVEAAKAHGPEALVFSGAGTDHLAPEAARSLDDVIRAYEEQVAAVEKVGGRIILMASRALARIGTSAADYETVYGRILSQVREPVIIHWLGDMFDPALAGYWGTRDLDAAMDTAVAIINAHAAKVDGVKISLLDKDKEIAMRRRLDPAVRMYTGDDFNYAELVAGDAQGYSHALLGIFDAIAPAASAALTALAAGDEAGFHDILAPTVPLSRHIFRAPTRFYKTGVVFMAYLNGHQDHFTMVGGQESARSTLHLAELFRLADRAGLLTDPDLAVQRMRAVLAVRGVEAEGHHHHHH | soluble |
| MSLSLSSIIKNIPKAELHLHIEGSLTPELMWRLAEKHSVSLPYASVEEIEAAYNFEDLQSFLDLYYAGAGVLRDEDDFFALMWEYLTRCHEDNIVHTEIMFDPQTHTERDIGFDIFMPGFLKAMEKAKDEYGISSYLIMSFLRHLPEDAAFDTLSAAEPYYEHITAVGLDSSELGHPPSKFERVFKKAKALGFKIVAHAGEEGPASYIWEAIELLDVDRIDHGVRCQEDEALMDLLKERQIPLTVCPLSNLKLCVINDMKDHNIVQLLDAGLLVTVNSDDPTYFGGFLNDNFEALHQSLGIDEKTVRTLVANSFKASFLPQEQKNQLVEKVLSAEGHHHHHH | soluble |
| MSLSMITLWGRNNSTNVKKVLLTLEELELPYEQILAGREFGINHDADFLAMNPNGLVPLLRDDESDLILWESNAIVRYLAAQYGQKRLWIDSPARRAEAEKWMDWANQTLSNAHRGILMGLVRTPPEERDQAAIDASCKECDALFALLDAELAKVKWFSGDEFGVGDIAIAPFIYNLFNVGLTWTPRPNLQRWYQQLTERPAVRKVVMIPVSEGHHHHHH | soluble |
| MSLSQIVAEVDGYKVTKEELDTLFHVFWKRITHLSSAKPTQEDKRIFLIDYVADLLILKEAKKMGIEVSEKEINDFIRKYVGRKIKEKSVINAVKAEILVEKLVDKLMKEQELNPSEDILRAYYEFYKREFYRPSSVKLLGIYVKSKKEAERISQILKQGEVPSTEDVKVSKPLWYSIPTLPKYIRRNFRTLSVGEVSKPIKINDGYLVFKILDKKPAGFIPFERAKSLVKKMYLKEKRKEVFKKWLSEVLKKYQVRSTGKEGHHHHHH | not soluble |
| MSLSQKNNNELPKQAAENTLNLNPVIGIRGKDLLTSARMVLLQAVRQPLHSARHVAHFSLELKNVLLGQSELRPGDDDRRFSDPAWSQNPLYKRYMQTYLAWRKELHSWISHSDLSPQDISRGQFVINLLTEAMSPTNSLSNPAAVKRFFETGGKSLLDGLGHLAKDLVNNGGMPSQVDMDAFEVGKNLATTEGAVVFRNDVLELIQYRPITESVHERPLLVVPPQINKFYVFDLSPDKSLARFCLRNGVQTFIVSWRNPTKSQREWGLTTYIEALKEAIEVVLSITGSKDLNLLGACSGGITTATLVGHYVASGEKKVNAFTQLVSVLDFELNTQVALFADEKTLEAAKRRSYQSGVLEGKDMAKVFAWMRPNDLIWNYWVNNYLLGNQPPAFDILYWNNDTTRLPAALHGEFVELFKSNPLNRPGALEVSGTPIDLKQVTCDFYCVAGLNDHITPWESCYKSARLLGGKCEFILSNSGHIQSILNPPGNPKARFMTNPELPAEPKAWLEQAGKHADSWWLHWQQWLAERSGKTRKAPASLGNKTYPAGEAAPGTYVHEREGHHHHHH | soluble |
| MSLSQPIKLGIITDRVGAAKPYAEPVLQGAQVAAKELNASGGVLGRPIELLVEDDQGRPDLSATAARKMVDSGVAFILSISWTSATQQAQSVTVETGTPHLAPSNSGDTLTTQIANPNFWQTGPLASSQVSTLLAYARSKSFKRVAIIGDNTGLGQLMTQSFKAGIEAAKIQVVSEEVVPRGANSADAQIQRVRASNPDAIFLTGILAPENTLILRAYRLLGLKAPLLGNFSFSNIQYASVAKGLLDGLVFIDAFDPTKPQVQRFIATYTKAAGTAPDNINAYGYDGVMLVADAIRRAGGTDKLKVRDAMQATKGFVGVLGAQGASYGFANGKRTGFDGDGLVVRIYEGDRQGKVQFTGTREGHHHHHH | soluble |
| MSLSQQVIIFDTTLRDGEQALQASLSVKEKLQIALALERMGVDVMEVGFPVSSPGDFESVQTIARQVKNSRVCALARCVEKDIDVAAESLKVAEAFRIHTFIATSPMHIATKLRSTLDEVIERAIYMVKRARNYTDDVEFSCEDAGRTPIADLARVVEAAINAGATTINIPDTVGYTMPFEFAGIISGLYERVPNIDKAIISVHTHDDLGLAVGNSLAAVHAGARQVEGAMNGIGERAGNCSLEEVIMAIKVRKDILNVHTAINHQEIWRTSQLVSQICNMPIPANKAIVGSGAFAHSSGIHQDGVLKNRENYEIMTPESIGLNQIQLNLTSRSGRAAVKHRMDEMGYKESEYNLDNLYDAFLKLADKKGQVFDYDLEALAFIGKQQEEPEHFRLDYFSVQSGSNDIATAAVKLACGEEVKAEAANGNGPVDAVYQAINRITEYNVELVKYSLTAKGHGKDALGQVDIVANYNGRRFHGVGLATDIVESSAKAMVHVLNNIWRAAEVEKELQRKAQHNENNKETVEGGSHHHHHH | soluble |
| MSLSRAAIVDQLKEIVGADRVITDETVLKKNSIDRFRKFPDIHGIYTLPIPAAVVKLGSTEQVSRVLNFMNAHKINGVPRTGASATEGGLETVVENSVVLDGSAMNQIINIDIENMQATAQCGVPLEVLENALREKGYTTGHSPQSKPLAQMGGLVATRSIGQFSTLYGAIEDMVVGLEAVLADGTVTRIKNVPRRAAGPDIRHIIIATKVHCAISLK | soluble |
| MSLSREPQTYLAQRFDPDALGQPALALQLEARHNDTEVPVHRHRKGQLVVACRGGITCTVPDGLWMVPAGFGVWIPGGIAHSNRVTANGKVCFLFVEPGAARLPSDCCTLALSPLVLELILHLSAQPQDYPHDGPLARLAGVLLELLEQAPTEQLYLPLPDNRGLRRIADELTRAPGDRASMAEWARRVAMSERSLARMVRRETGMTFGQWRQQLQIIIALQQLSAGVSVQRTAEILGYESVSSFIGMFRKALGSPPARYVRDSMEGGSHHHHHH | soluble |
| MSLSRPRSVADHPMINPRLIALPDYPFQRLATLLAGVAPGADPLALSVGEPQHPTPALAGLELARHGDQWRRYPPAAGNERWKAAVTAWLTRRYGLPAAMIDPHAVIPASGTREALYMLGQVLTDGRGEAGERPLVVMPDPLYLPYLGAARMNGATILAVPGSEEGDFLPDIAGLPAATLERAAAVFVCSPANPQGSIVSLESWKTLVGLARRHGFVLVADECYSEIYDDQPPPGVLEACRDLGGSLKNVLVLNSLSKRSNGAGLRSGLIAGDRALIDAFLRLRAYASAGMPLPIMEASAALWDDETHVEANRALYREKIDLAAARLKGMLGFRRPPGGFFLWLDTTPWGETGEQATLRLWRDHGLKVLPGAYMTANPDAGDNPARNRLRLALVHDGPVVARALDRLVAASPHEGHHHHHH | soluble |
| MSLSRRIGIIDTTLRDAQQCLWATRMTAGMMDPIAQALDEAGFDMIDFMAPVQFDVCVRYLREDPFEKARHFRKRFRNTPMRSYCRSKSLVGFSMVPDDMVELWIDCLAANGFSAVGTLDSLLDVDNMKVSVGRAKKIGIKSIGALVFCESPLHTDALYAGTAAELVRCGVDGIMLKDSGALLTIERIRTLIPALRAAVGDIPIEVHSHSNTGLVQRVYLDAADLGIDQLHTSIAPLAGGVAQPSIQNMTRNLAQRGYRTDVDMARVEEISAYLHRLAARYDFPLGKEGHHHHHH | not soluble |
| MSLSRVRLVIAQCTVDYIGRLTAHLPSARRLLLFKADGSVSVHADDRAYKPLNWMSPPCWLTEESGGQAPVWVVENKAGEQLRITIEGIEHDSSHELGVDPGLVKDGVEAHLQALLAEHIQLLGEGYTLVRREYMTAIGPVDLLCSDERGGSVAVEIKRRGEIDGVEQLTRYLELLNRDSVLAPVKGVFAAQQIKPQARILATDRGIRCLTLDYDTMRGMDSGEYRLFEGHHHHHH | soluble |
| MSLSSARADRLRSHQTRVIGLILTDIANPFYTEIAAGTIDAARARGYEVFLAHTQEDPQTLRSIVDTMIARQVDGVVITVLHPDDGEVIRSLRSARIPLVQLSRRIQRVDADFVGIDDRAAASEMMEHVVTHGYQDIVTVVGPRTSSASAAREEGFIRTAEAHGIRTVSSQRISTYLSERGGYEAVEQVLARKSLPRVIVCGSDVIALGAISALRERSLNVPDDVAVTGFDGLYPGPLVELTTINQPRREMAEQSIELLTRRIEGAGGSYQSVLRAHQLRIGTTCGCPRMRPHLAAEGHHHHHH | not soluble |
| MSLSSEPVVVAILPHAAELAEKIAAKIGGRVDLRGSDFTDTGAHLRSLFLAGHPIVGIGAAGIYIRSLASVLGDKNSEPPVLAVSEDARNIVPLLGGHHGANGLAKEIADYLETAAAVTTSGDVAMGVALDEPPQGWKLENPEDAKGAMAALLGGAKAQQSGNGDWLTPLSSRVEFSETDADAPVVLSVEGAAPLIYRRQSFALGLGCARGCDPDELIALVAKTLADNGRSIHEVAMVGSIDIKSDEAAIHAVARHLGVPARFFDADELNSVTPRLANPSEVVRAEVGVAGVSEGAALVMAGVSGALVIEKTKTANATCALARISQDGSEGHHHHHH | soluble |
| MSLSSLLIDLKGKELEQEEVELLSHPLVAGLILFTRNFENREQIQELIRSVRQRVKKPLLITVDQEGGRVQRFRDGFTMLPSMQAFQETLSATEQVSFAKEAGWQMAAEMIALDIDLSFAPVLDLGHECRAIGDRSFSSDVKSAVNLATAFIDGMHQAGMASTGKHFPGHGHVLADSHLETPYDDRTKEEIFSGDLQPFQQLISQNKLDAIMPAHVIYSQCDSQPASGSKYWLKEILRKKLNFQGTIFSDDLGMKGAGVMGNFVERSKKALNAGCDLLLLCNEREGVIQVLDNLKLTENQPHFMARQARLQSLFKRRVINWNDLISDQRWRLNYQKLADIQSRWLDIQAAKNDEGGSHHHHHH | soluble |
| MSLSSWVSESSTETDKYGKSSEGKLYGKSRLSAHPGGIFEPVPYMTSAISLFEYIRERFGYGIEILHDVHERISPIQGVWFAKQVEKYRLFFLEDLFSPEDQHYFEMVRQQCATPIAMGELYVSPNDVIPMMKNKLIDFIRIHISDIGGITPARKIATFGELMGIKTAWHGPGDTSPVGHAANLALNLNSQNFGIQEAAIFGENSKEVFPGCPELRDGMMWSNGKPGLGIDINEELAKKFPFKERVWGGAWEGHHHHHH | not soluble |
